Experimental data taken from the supplement of paper PMC10065799, “High-throughput profiling of sequence recognition by tyrosine kinases and SH2 domains using bacterial peptide display” (eLife, 2023).
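Wherever SH2 binding enrichment of the phosphorylated peptide, bacterial display is given: peptide library displayed on the E. coli surface as eCPX fusions, selected cells deep-sequenced, score is each peptide's frequency after selection divided by its frequency in the input.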
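Wherever phosphorylation enrichment, bacterial display is given: 11-residue human phosphosite peptides and single-mutation variants displayed on the E. coli surface, counted by deep sequencing, each peptide's frequency after selection divided by its frequency in the unselected input library; frequency after pTyr selection over input frequency; kinase dosed for 20-30% of maximal phosphorylation in three min.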

These sequences were tested against Grb2 SH2 (UniProt P62993) (assay: SH2 binding enrichment of the phosphorylated peptide, bacterial display (enrichment ratio); higher = better substrate or ligand; peptides without Tyr show the background).
Sequence of Grb2 SH2 (P62993 whole entry, looked up): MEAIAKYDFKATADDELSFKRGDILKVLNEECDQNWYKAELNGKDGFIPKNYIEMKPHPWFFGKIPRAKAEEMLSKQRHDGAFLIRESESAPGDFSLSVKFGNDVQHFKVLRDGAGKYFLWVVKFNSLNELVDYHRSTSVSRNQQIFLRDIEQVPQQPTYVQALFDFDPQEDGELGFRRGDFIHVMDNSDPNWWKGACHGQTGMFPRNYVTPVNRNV
Sequence CKSIHYDLVFL [COL22A1_Y37_V35I] has an SH2 binding enrichment of 0.736.
In the case of KNCFKYFMSDD [ATRX_Y203_YF], the SH2 binding enrichment is reported as 0.803.
Work on SENPKCPEVGD [TMEM43_Y233_Y233C] yielded an SH2 binding enrichment of 0.959.
For ACQGKYTPSSQ [ALDOA_Y343_G347S], the SH2 binding enrichment was 0.928.
For RSSKRYLKTRS [LPL_Y329_M328R], the SH2 binding enrichment was 0.628.
In the case of SNKELYEKFMI, the SH2 binding enrichment is reported as 0.79.
Work on TESNNYIFTTL [FAM83B_Y637_K640T_YF] yielded an SH2 binding enrichment of 0.922.
For CTTIHYNYMCY [TP53_Y234_N239Y], the SH2 binding enrichment was 1.65.
For SVKVFYKKCWF [EPHA7_Y202_S207F_YF], the SH2 binding enrichment was 0.764.
Sequence QTSSNYDDAMQ [ZNF281_Y531_I527T] has an SH2 binding enrichment of 0.823.
Work on DRKRQCELLKL [KIF4B_Y684_Y684C] yielded an SH2 binding enrichment of 1.03.
For GCKNRYDKDKP [THAP1_Y14], the SH2 binding enrichment was 1.36.
VIEQSYNETWL [SLC2A4_Y56] gave an SH2 binding enrichment of 0.713.
IPQEEYKATGL showed an SH2 binding enrichment of 0.763.
For QDRTYYESVRT [SPEN_Y633], the SH2 binding enrichment was 0.724.
Sequence GLDGSYLLRYS [SH2D1A_Y29_D33Y] has an SH2 binding enrichment of 0.97.
Work on VVGMLYVGRLP [LAMA2_Y2886_G2889R] yielded an SH2 binding enrichment of 0.926.
For DEQKKYFNAMK [SCN5A_Y1494_E1489D_YF], the SH2 binding enrichment was 0.856.
RSSPTYRDCLQ [LARGE2_Y682] was tested, and the SH2 binding enrichment was 0.981.
YRDMDYRSYPR [RBM10_Y41] was tested, and the SH2 binding enrichment was 0.87.
Sequence LILENYGADID [DNAH5_Y596] has an SH2 binding enrichment of 0.939.
With QRHYVYYYSYL [PTEN_Y176_R173H] the SH2 binding enrichment was 0.688.
For AYQGKYTPSGQ [ALDOA_Y343_C339Y], the SH2 binding enrichment was 0.939.
GRMLQYLTVND [PPFIBP2_Y663_R658G] was tested, and the SH2 binding enrichment was 0.99.
LAVVDYMRRQK [ATM_Y1915] was tested, and the SH2 binding enrichment was 0.675.
LEPGIYIPEDD [XPNPEP3_Y455_I450L] was tested, and the SH2 binding enrichment was 0.881.
Work on VYSTDYYRVGG [NTRK2_Y706] yielded an SH2 binding enrichment of 0.92.
Work on VRSNHYAPEED [TJP1_Y1346_D1347A] yielded an SH2 binding enrichment of 1.
Sequence CHKCTYKVTGL has an SH2 binding enrichment of 1.46.
With TRNREYDDIDD [TTYH2_Y424_D423E] the SH2 binding enrichment was 0.589.
GKVADYIPQLA [GLS_Y249] showed an SH2 binding enrichment of 0.882.
SVVGPYEPPEV [TP53_Y220_V218G] gave an SH2 binding enrichment of 0.935.
With FSIDFYRVGGH [NTRK2_Y707_T704I_YF] the SH2 binding enrichment was 0.926.

These sequences were tested against SHP2-C SH2 in the same assay as above.
CKSIHYDLVFL [COL22A1_Y37_V35I] gave an SH2 binding enrichment of 0.573.
For KNCFKYFMSDD [ATRX_Y203_YF], the SH2 binding enrichment was 0.529.
For SENPKCPEVGD [TMEM43_Y233_Y233C], the SH2 binding enrichment was 0.922.
Work on ACQGKYTPSSQ [ALDOA_Y343_G347S] yielded an SH2 binding enrichment of 0.887.
For RSSKRYLKTRS [LPL_Y329_M328R], the SH2 binding enrichment was 0.58.
SNKELYEKFMI was tested, and the SH2 binding enrichment was 0.705.
TESNNYIFTTL [FAM83B_Y637_K640T_YF] was tested, and the SH2 binding enrichment was 0.821.
For CTTIHYNYMCY [TP53_Y234_N239Y], the SH2 binding enrichment was 3.28.
SVKVFYKKCWF [EPHA7_Y202_S207F_YF] showed an SH2 binding enrichment of 0.765.
QTSSNYDDAMQ [ZNF281_Y531_I527T] was tested, and the SH2 binding enrichment was 0.716.
DRKRQCELLKL [KIF4B_Y684_Y684C] gave an SH2 binding enrichment of 1.19.
GCKNRYDKDKP [THAP1_Y14] was tested, and the SH2 binding enrichment was 0.768.
Work on VIEQSYNETWL [SLC2A4_Y56] yielded an SH2 binding enrichment of 0.68.
IPQEEYKATGL showed an SH2 binding enrichment of 0.777.
QDRTYYESVRT [SPEN_Y633] showed an SH2 binding enrichment of 1.54.
In the case of GLDGSYLLRYS [SH2D1A_Y29_D33Y], the SH2 binding enrichment is reported as 1.14.
VVGMLYVGRLP [LAMA2_Y2886_G2889R] showed an SH2 binding enrichment of 0.987.
DEQKKYFNAMK [SCN5A_Y1494_E1489D_YF] was tested, and the SH2 binding enrichment was 1.03.
In the case of RSSPTYRDCLQ [LARGE2_Y682], the SH2 binding enrichment is reported as 0.964.
In the case of YRDMDYRSYPR [RBM10_Y41], the SH2 binding enrichment is reported as 0.707.
LILENYGADID [DNAH5_Y596] showed an SH2 binding enrichment of 0.685.
For QRHYVYYYSYL [PTEN_Y176_R173H], the SH2 binding enrichment was 1.12.
Work on AYQGKYTPSGQ [ALDOA_Y343_C339Y] yielded an SH2 binding enrichment of 0.639.
GRMLQYLTVND [PPFIBP2_Y663_R658G] was tested, and the SH2 binding enrichment was 0.998.
LAVVDYMRRQK [ATM_Y1915] showed an SH2 binding enrichment of 0.652.
In the case of LEPGIYIPEDD [XPNPEP3_Y455_I450L], the SH2 binding enrichment is reported as 0.455.
In the case of VYSTDYYRVGG [NTRK2_Y706], the SH2 binding enrichment is reported as 0.687.
For VRSNHYAPEED [TJP1_Y1346_D1347A], the SH2 binding enrichment was 0.893.
For CHKCTYKVTGL, the SH2 binding enrichment was 1.46.
TRNREYDDIDD [TTYH2_Y424_D423E] was tested, and the SH2 binding enrichment was 0.358.
In the case of GKVADYIPQLA [GLS_Y249], the SH2 binding enrichment is reported as 0.924.
SVVGPYEPPEV [TP53_Y220_V218G] gave an SH2 binding enrichment of 0.618.
In the case of FSIDFYRVGGH [NTRK2_Y707_T704I_YF], the SH2 binding enrichment is reported as 0.814.

These sequences were tested against c-Src SH2 in the same assay as above.
Sequence CKSIHYDLVFL [COL22A1_Y37_V35I] has an SH2 binding enrichment of 1.06.
In the case of KNCFKYFMSDD [ATRX_Y203_YF], the SH2 binding enrichment is reported as 0.546.
Work on SENPKCPEVGD [TMEM43_Y233_Y233C] yielded an SH2 binding enrichment of 0.682.
For ACQGKYTPSSQ [ALDOA_Y343_G347S], the SH2 binding enrichment was 0.553.
With RSSKRYLKTRS [LPL_Y329_M328R] the SH2 binding enrichment was 0.504.
In the case of SNKELYEKFMI, the SH2 binding enrichment is reported as 0.526.
For TESNNYIFTTL [FAM83B_Y637_K640T_YF], the SH2 binding enrichment was 0.502.
CTTIHYNYMCY [TP53_Y234_N239Y] showed an SH2 binding enrichment of 3.88.
SVKVFYKKCWF [EPHA7_Y202_S207F_YF] was tested, and the SH2 binding enrichment was 0.441.
QTSSNYDDAMQ [ZNF281_Y531_I527T] gave an SH2 binding enrichment of 0.794.
In the case of DRKRQCELLKL [KIF4B_Y684_Y684C], the SH2 binding enrichment is reported as 0.886.
Sequence GCKNRYDKDKP [THAP1_Y14] has an SH2 binding enrichment of 0.949.
VIEQSYNETWL [SLC2A4_Y56] gave an SH2 binding enrichment of 0.535.
Sequence IPQEEYKATGL has an SH2 binding enrichment of 0.564.
Work on QDRTYYESVRT [SPEN_Y633] yielded an SH2 binding enrichment of 3.76.
Sequence GLDGSYLLRYS [SH2D1A_Y29_D33Y] has an SH2 binding enrichment of 0.438.
VVGMLYVGRLP [LAMA2_Y2886_G2889R] was tested, and the SH2 binding enrichment was 0.561.
In the case of DEQKKYFNAMK [SCN5A_Y1494_E1489D_YF], the SH2 binding enrichment is reported as 0.554.
For RSSPTYRDCLQ [LARGE2_Y682], the SH2 binding enrichment was 0.448.
With YRDMDYRSYPR [RBM10_Y41] the SH2 binding enrichment was 0.941.
Work on LILENYGADID [DNAH5_Y596] yielded an SH2 binding enrichment of 0.669.
Work on QRHYVYYYSYL [PTEN_Y176_R173H] yielded an SH2 binding enrichment of 0.698.
Work on AYQGKYTPSGQ [ALDOA_Y343_C339Y] yielded an SH2 binding enrichment of 0.622.
Work on GRMLQYLTVND [PPFIBP2_Y663_R658G] yielded an SH2 binding enrichment of 0.598.
Sequence LAVVDYMRRQK [ATM_Y1915] has an SH2 binding enrichment of 0.531.
Sequence LEPGIYIPEDD [XPNPEP3_Y455_I450L] has an SH2 binding enrichment of 0.456.
For VYSTDYYRVGG [NTRK2_Y706], the SH2 binding enrichment was 0.719.
Work on VRSNHYAPEED [TJP1_Y1346_D1347A] yielded an SH2 binding enrichment of 0.695.
Sequence CHKCTYKVTGL has an SH2 binding enrichment of 1.34.
In the case of TRNREYDDIDD [TTYH2_Y424_D423E], the SH2 binding enrichment is reported as 0.545.
For GKVADYIPQLA [GLS_Y249], the SH2 binding enrichment was 0.481.
SVVGPYEPPEV [TP53_Y220_V218G] showed an SH2 binding enrichment of 0.523.
FSIDFYRVGGH [NTRK2_Y707_T704I_YF] was tested, and the SH2 binding enrichment was 0.548.

Each sequence was assayed against Fyn (UniProt P06241) (assay: phosphorylation enrichment, bacterial display (enrichment ratio); higher = better substrate or ligand; peptides without Tyr show the background).
Sequence of Fyn (P06241 whole entry, looked up): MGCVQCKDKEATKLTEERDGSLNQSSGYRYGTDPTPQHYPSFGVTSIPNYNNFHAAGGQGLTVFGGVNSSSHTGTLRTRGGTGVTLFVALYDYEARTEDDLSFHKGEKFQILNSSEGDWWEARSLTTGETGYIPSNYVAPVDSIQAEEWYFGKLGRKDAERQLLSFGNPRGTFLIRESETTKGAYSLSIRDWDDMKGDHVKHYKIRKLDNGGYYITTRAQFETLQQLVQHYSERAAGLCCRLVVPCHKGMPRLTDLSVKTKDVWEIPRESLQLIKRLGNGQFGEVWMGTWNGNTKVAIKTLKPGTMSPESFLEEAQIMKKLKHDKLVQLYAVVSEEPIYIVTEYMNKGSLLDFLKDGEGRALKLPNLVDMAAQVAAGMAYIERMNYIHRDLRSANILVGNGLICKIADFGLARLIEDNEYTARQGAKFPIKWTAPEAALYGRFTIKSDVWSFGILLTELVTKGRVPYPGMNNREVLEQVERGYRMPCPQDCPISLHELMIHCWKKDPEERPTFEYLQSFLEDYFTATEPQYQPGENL
CKSIHYDLVFL [COL22A1_Y37_V35I] was tested, and the phosphorylation enrichment was 0.574.
Work on KNCFKYFMSDD [ATRX_Y203_YF] yielded a phosphorylation enrichment of 0.453.
For SENPKCPEVGD [TMEM43_Y233_Y233C], the phosphorylation enrichment was 0.441.
ACQGKYTPSSQ [ALDOA_Y343_G347S] showed a phosphorylation enrichment of 0.433.
RSSKRYLKTRS [LPL_Y329_M328R] gave a phosphorylation enrichment of 0.937.
Work on SNKELYEKFMI yielded a phosphorylation enrichment of 1.14.
Work on TESNNYIFTTL [FAM83B_Y637_K640T_YF] yielded a phosphorylation enrichment of 0.539.
Sequence CTTIHYNYMCY [TP53_Y234_N239Y] has a phosphorylation enrichment of 1.15.
SVKVFYKKCWF [EPHA7_Y202_S207F_YF] showed a phosphorylation enrichment of 0.568.
For QTSSNYDDAMQ [ZNF281_Y531_I527T], the phosphorylation enrichment was 0.756.
Work on DRKRQCELLKL [KIF4B_Y684_Y684C] yielded a phosphorylation enrichment of 0.355.
With GCKNRYDKDKP [THAP1_Y14] the phosphorylation enrichment was 0.535.
VIEQSYNETWL [SLC2A4_Y56] was tested, and the phosphorylation enrichment was 0.558.
IPQEEYKATGL was tested, and the phosphorylation enrichment was 0.497.
In the case of QDRTYYESVRT [SPEN_Y633], the phosphorylation enrichment is reported as 2.28.
GLDGSYLLRYS [SH2D1A_Y29_D33Y] gave a phosphorylation enrichment of 0.485.
VVGMLYVGRLP [LAMA2_Y2886_G2889R] gave a phosphorylation enrichment of 0.442.
Work on DEQKKYFNAMK [SCN5A_Y1494_E1489D_YF] yielded a phosphorylation enrichment of 0.394.
Sequence RSSPTYRDCLQ [LARGE2_Y682] has a phosphorylation enrichment of 0.469.
For YRDMDYRSYPR [RBM10_Y41], the phosphorylation enrichment was 0.402.
LILENYGADID [DNAH5_Y596] showed a phosphorylation enrichment of 0.883.
QRHYVYYYSYL [PTEN_Y176_R173H] showed a phosphorylation enrichment of 3.5.
In the case of AYQGKYTPSGQ [ALDOA_Y343_C339Y], the phosphorylation enrichment is reported as 0.262.
For GRMLQYLTVND [PPFIBP2_Y663_R658G], the phosphorylation enrichment was 0.401.
In the case of LAVVDYMRRQK [ATM_Y1915], the phosphorylation enrichment is reported as 0.413.
Sequence LEPGIYIPEDD [XPNPEP3_Y455_I450L] has a phosphorylation enrichment of 0.705.
VYSTDYYRVGG [NTRK2_Y706] was tested, and the phosphorylation enrichment was 5.13.
Work on VRSNHYAPEED [TJP1_Y1346_D1347A] yielded a phosphorylation enrichment of 0.473.
Work on CHKCTYKVTGL yielded a phosphorylation enrichment of 0.49.
Sequence TRNREYDDIDD [TTYH2_Y424_D423E] has a phosphorylation enrichment of 0.585.
With GKVADYIPQLA [GLS_Y249] the phosphorylation enrichment was 0.514.
Work on SVVGPYEPPEV [TP53_Y220_V218G] yielded a phosphorylation enrichment of 0.403.
FSIDFYRVGGH [NTRK2_Y707_T704I_YF] was tested, and the phosphorylation enrichment was 0.465.
